“And” between values parts separate entries of the source, which are not always exact repeats. Identical values can stand only once.
Experiment: Small-scale anaerobic C—H amination with purified enzymes, azide 1
Assay type: biochemical
Settings: for Product (3) / TTN on substrate 1: 1% loading of hemin; for Product (3): 0.1% loading, TTN; for Product (3) / activity with reductant NADPH / activity with reductant Dithionite: azide 1; for activity with reductant NADPH: NADPH (2 mM); for activity with reductant Dithionite: dithionite (2 mM)
Outline: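 Purified P450 or P411 enzymes (0.1-0.5% catalyst loading) in 400 μL reactions of 0.1 M potassium phosphate pH 8.0 with a catalase/glucose oxidase oxygen-depletion system were made anaerobic under argon, given 10 μL of 80 mM arylsulfonyl azide in DMSO, and stirred 24 h at room temperature. After HCl quench and acetonitrile addition, sultam was quantified by HPLC at 220 nm against an internal standard; enantioselectivity was measured by chiral HPLC.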

[1] = 0.1 mol % catalyst loading (2 μM), 2 mM azide 1, 2 mM NADPH, benzosultam 3
[2] = 0.1 mol % catalyst loading, (S−R)/(S+R), benzosultam 3
[3] = catalyst loading 0.5 mol %, NADPH, anaerobic
[4] = CS heme-Na2S2O4 + NADPH (heme domain)
[5] = Complete system (CS), holoenzyme

hemin
Product (3) / TTN on substrate 1: 3.1 | Product (3) / TTN on substrate 1 (listed as hemin): 3 | % activity (CS-P450 + Hemin): 0% | TTN (CS-P450 + Hemin (2 μM hemin)): 0 | stereochemical outcome of product 3 (reaction with hemin): racemic

B1: ABC-CIS: BM3-CIS + C400S (protein, listed as Bacillus megaterium)
chain: TIKEMPQPKTFGELKNLPLLNTDKPVQALMKIADELGEIFKFEAPGRVTRYLSSQRLIKEACDESRFDKNLSQALKFARDFAGDGLVTSWTHEKNWKKAHNILLPSFSQQAMKGYHAMMVDIAVQLVQKWERLNADEHIEVSEDMTRLTLDTIGLCGFNYRFNSFYRDQPHPFIISMVRALDEVMNKLQRANPDDPAYDENKRQFQEDIKVMNDLVDKIIADRKARGEQSDDLLTQMLNGKDPETGEPLDDGNIRYQIITFLIAGHEATSGLLSFALYFLVKNPHVLQKVAEEAARVLVDPVPSYKQVKQLKYVGMVLNEALRLWPTAPAFSLYAKEDTVLGGEYPLEKGDEVMVLIPQLHRDKTVWGDDVEEFRPERFENPSAIPQHAFKPFGNGQRASIGQQFALHEATLVLGMMLKHFDFEDHTNYELDIKETLTLKPKGFVVKAKSKKIPLGGIPSPSTEQSAKKVRKKAENAHNTPLLVLYGSNMGTAEGTARDLADIAMSKGFAPQVATLDSHAGNLPREGAVLIVTASYNGHPPDNAKQFVDWLDQASADEVKGVRYSVFGCGDKNWATTYQKVPAFIDETLAAKGAENIADRGEADASDDFEGTYEEWREHMWSDVAAYFNLDIENSEDNKSTLSLQFVDSAADMPLAKMHGAFSTNVVASKELQQPGSARSTRHLEIELPKEASYQEGDHLGVIPRNYEGIVNRVTARFGLDASQQIRLEAEEEKLAHLPLAKTVSVEELLQYVELQDPVTRTQLRAMAAKTVCPPHKVELEALLEKQAYKEQVLAKRLTMLELLEKYPACEMKFSEFIALLPSIRPRYYSISSSPRVDEKQASITVSVVSGEAWSGYGEYKGIASNYLAELQEGDTITCFISTPQSEFTLPKDPETPLIMVGPGTGVAPFRGFVQARKQLKEQGQSLGEAHLYFGCRSPHEDYLYQEELENAQSEGIITLHTAFSRMPNQPKTYVQHVMEQDGKKLIELLDQGAHFYICGDGSQMAPAVEATLMKSYADVHQVSEADARLWLQQLEEKGRYAKDVWAG
modifications: cytochrome P450NADPH-P-450 reductase precursor, cytochrome P450 (BM3), CYP102A1
notes: BM3-CIS + C400S
Product (3): 310 | TTN [1]: 313 and 310 | % ee [2]: 67% | TTN ([NADPH] 0 mM): 0 | [sultam] ([NADPH] 0 mM): 0 mM | TTN ([NADPH] 0.01 mM): 27 | [sultam] ([NADPH] 0.01 mM): 0.053 mM | TTN ([NADPH] 0.02 mM): 82 | [sultam] ([NADPH] 0.02 mM): 0.164 mM | TTN ([NADPH] 0.1 mM): 243 | [sultam] ([NADPH] 0.1 mM): 0.486 mM | TTN ([NADPH] 2 mM): 161 | [sultam] ([NADPH] 2 mM, 0.1 mol % loading): 0.322 mM | TTN (C—H amination product 3) [3]: over 140 | yield of 3 by HPLC [3]: 73%

B2: P450BM3: wild-type cytochrome P450BM3 from Bacillus megaterium (SEQ ID NO: 1) (protein, listed as Bacillus megaterium)
chain: TIKEMPQPKTFGELKNLPLLNTDKPVQALMKIADELGEIFKFEAPGRVTRYLSSQRLIKEACDESRFDKNLSQALKFVRDFAGDGLFTSWTHEKNWKKAHNILLPSFSQQAMKGYHAMMVDIAVQLVQKWERLNADEHIEVPEDMTRLTLDTIGLCGFNYRFNSFYRDQPHPFITSMVRALDEAMNKLQRANPDDPAYDENKRQFQEDIKVMNDLVDKIIADRKASGEQSDDLLTHMLNGKDPETGEPLDDENIRYQIITFLIAGHETTSGLLSFALYFLVKNPHVLQKAAEEAARVLVDPVPSYKQVKQLKYVGMVLNEALRLWPTAPAFSLYAKEDTVLGGEYPLEKGDELMVLIPQLHRDKTIWGDDVEEFRPERFENPSAIPQHAFKPFGNGQRACIGQQFALHEATLVLGMMLKHFDFEDHTNYELDIKETLTLKPEGFVVKAKSKKIPLGGIPSPSTEQSAKKVRKKAENAHNTPLLVLYGSNMGTAEGTARDLADIAMSKGFAPQVATLDSHAGNLPREGAVLIVTASYNGHPPDNAKQFVDWLDQASADEVKGVRYSVFGCGDKNWATTYQKVPAFIDETLAAKGAENIADRGEADASDDFEGTYEEWREHMWSDVAAYFNLDIENSEDNKSTLSLQFVDSAADMPLAKMHGAFSTNVVASKELQQPGSARSTRHLEIELPKEASYQEGDHLGVIPRNYEGIVNRVTARFGLDASQQIRLEAEEEKLAHLPLAKTVSVEELLQYVELQDPVTRTQLRAMAAKTVCPPHKVELEALLEKQAYKEQVLAKRLTMLELLEKYPACEMKFSEFIALLPSIRPRYYSISSSPRVDEKQASITVSVVSGEAWSGYGEYKGIASNYLAELQEGDTITCFISTPQSEFTLPKDPETPLIMVGPGTGVAPFRGFVQARKQLKEQGQSLGEAHLYFGCRSPHEDYLYQEELENAQSEGIITLHTAFSRMPNQPKTYVQHVMEQDGKKLIELLDQGAHFYICGDGSQMAPAVEATLMKSYADVHQVSEADARLWLQQLEEKGRYAKDVWAG
modifications: cytochrome P450NADPH-P-450 reductase precursor, cytochrome P450 (BM3), CYP102A1
TTN [1]: 2.1 | TTN (C—H amination product 3) [3]: 4

B3: BM3-T268A: P450BM3 variant: T268A (protein, listed as Bacillus megaterium)
chain: TIKEMPQPKTFGELKNLPLLNTDKPVQALMKIADELGEIFKFEAPGRVTRYLSSQRLIKEACDESRFDKNLSQALKFVRDFAGDGLFTSWTHEKNWKKAHNILLPSFSQQAMKGYHAMMVDIAVQLVQKWERLNADEHIEVPEDMTRLTLDTIGLCGFNYRFNSFYRDQPHPFITSMVRALDEAMNKLQRANPDDPAYDENKRQFQEDIKVMNDLVDKIIADRKASGEQSDDLLTHMLNGKDPETGEPLDDENIRYQIITFLIAGHEATSGLLSFALYFLVKNPHVLQKAAEEAARVLVDPVPSYKQVKQLKYVGMVLNEALRLWPTAPAFSLYAKEDTVLGGEYPLEKGDELMVLIPQLHRDKTIWGDDVEEFRPERFENPSAIPQHAFKPFGNGQRACIGQQFALHEATLVLGMMLKHFDFEDHTNYELDIKETLTLKPEGFVVKAKSKKIPLGGIPSPSTEQSAKKVRKKAENAHNTPLLVLYGSNMGTAEGTARDLADIAMSKGFAPQVATLDSHAGNLPREGAVLIVTASYNGHPPDNAKQFVDWLDQASADEVKGVRYSVFGCGDKNWATTYQKVPAFIDETLAAKGAENIADRGEADASDDFEGTYEEWREHMWSDVAAYFNLDIENSEDNKSTLSLQFVDSAADMPLAKMHGAFSTNVVASKELQQPGSARSTRHLEIELPKEASYQEGDHLGVIPRNYEGIVNRVTARFGLDASQQIRLEAEEEKLAHLPLAKTVSVEELLQYVELQDPVTRTQLRAMAAKTVCPPHKVELEALLEKQAYKEQVLAKRLTMLELLEKYPACEMKFSEFIALLPSIRPRYYSISSSPRVDEKQASITVSVVSGEAWSGYGEYKGIASNYLAELQEGDTITCFISTPQSEFTLPKDPETPLIMVGPGTGVAPFRGFVQARKQLKEQGQSLGEAHLYFGCRSPHEDYLYQEELENAQSEGIITLHTAFSRMPNQPKTYVQHVMEQDGKKLIELLDQGAHFYICGDGSQMAPAVEATLMKSYADVHQVSEADARLWLQQLEEKGRYAKDVWAG
modifications: cytochrome P450NADPH-P-450 reductase precursor, cytochrome P450 (BM3), CYP102A1
TTN [1]: 15 | % ee [2]: 36% | activity with reductant NADPH (0.1 mol % loading): 22 | TTN (C—H amination product 3) [3]: 28 | activity with reductant Dithionite (0.1 mol % loading): 25

B4: ABC-T268A: P450BM3 variant: T268A, C400S (protein, listed as Bacillus megaterium)
chain: TIKEMPQPKTFGELKNLPLLNTDKPVQALMKIADELGEIFKFEAPGRVTRYLSSQRLIKEACDESRFDKNLSQALKFVRDFAGDGLFTSWTHEKNWKKAHNILLPSFSQQAMKGYHAMMVDIAVQLVQKWERLNADEHIEVPEDMTRLTLDTIGLCGFNYRFNSFYRDQPHPFITSMVRALDEAMNKLQRANPDDPAYDENKRQFQEDIKVMNDLVDKIIADRKASGEQSDDLLTHMLNGKDPETGEPLDDENIRYQIITFLIAGHEATSGLLSFALYFLVKNPHVLQKAAEEAARVLVDPVPSYKQVKQLKYVGMVLNEALRLWPTAPAFSLYAKEDTVLGGEYPLEKGDELMVLIPQLHRDKTIWGDDVEEFRPERFENPSAIPQHAFKPFGNGQRASIGQQFALHEATLVLGMMLKHFDFEDHTNYELDIKETLTLKPEGFVVKAKSKKIPLGGIPSPSTEQSAKKVRKKAENAHNTPLLVLYGSNMGTAEGTARDLADIAMSKGFAPQVATLDSHAGNLPREGAVLIVTASYNGHPPDNAKQFVDWLDQASADEVKGVRYSVFGCGDKNWATTYQKVPAFIDETLAAKGAENIADRGEADASDDFEGTYEEWREHMWSDVAAYFNLDIENSEDNKSTLSLQFVDSAADMPLAKMHGAFSTNVVASKELQQPGSARSTRHLEIELPKEASYQEGDHLGVIPRNYEGIVNRVTARFGLDASQQIRLEAEEEKLAHLPLAKTVSVEELLQYVELQDPVTRTQLRAMAAKTVCPPHKVELEALLEKQAYKEQVLAKRLTMLELLEKYPACEMKFSEFIALLPSIRPRYYSISSSPRVDEKQASITVSVVSGEAWSGYGEYKGIASNYLAELQEGDTITCFISTPQSEFTLPKDPETPLIMVGPGTGVAPFRGFVQARKQLKEQGQSLGEAHLYFGCRSPHEDYLYQEELENAQSEGIITLHTAFSRMPNQPKTYVQHVMEQDGKKLIELLDQGAHFYICGDGSQMAPAVEATLMKSYADVHQVSEADARLWLQQLEEKGRYAKDVWAG
modifications: cytochrome P450NADPH-P-450 reductase precursor, cytochrome P450 (BM3), CYP102A1
notes: P450BM3 variant: T268A, C400S
Product (3): 135 | TTN [1]: 120 | % ee [2]: 58% | % activity (Boiled P450heme): 9.1% | % ee (Boiled P450heme): 3% | TTN (Boiled P450heme): 10 | % activity (Boiled P450holo): 30% | % ee (Boiled P450holo): 1% | TTN (Boiled P450holo): 33 | % activity (CS + CO): 4.4% | TTN (CS + CO): 5 | % activity (CS aerobic): 9.1% | % ee (CS aerobic): 60% | TTN (CS aerobic): 10 | % activity (CS heme): 145% | % ee (CS heme): 91% | TTN (CS heme (heme domain, 2 mM Na2S2O4)): 160 | % activity (CS heme + CO): 0% | TTN (CS heme + CO): 0 | % activity (CS heme aerobic): 0% | TTN (CS heme aerobic): 0 | % activity [4]: 3.6% | TTN [4]: 4 | % ee (CS-NADPH + Na2S2O4): 44% | TTN (CS-NADPH + Na2S2O4): 130 | % activity (CS-NADPH + Na2S2O4, residual activity (CS = 100%)): 120% | % ee [5]: 38% | TTN [5]: 110 | activity with reductant NADPH (0.1 mol % loading): 110 | activity with reductant Dithionite (0.1 mol % loading): 110

From patent US20150267232A1, “IN VIVO AND IN VITRO CARBENE INSERTION AND NITRENE TRANSFER REACTIONS CATALYZED BY HEME ENZYMES” (California Institute of Technology, priority 2012, published 2015)
